Source: patent US20160264649A1

What was measured:
Experiment in all cases: cell-based or functional assay
[1] = target: HIV-1 MGRM-G-025 Env (HIV-1)
[2] = target: HIV-1 92UG046 Env (HIV-1)
[3] = target: HIV-1 92UG024 Env (HIV-1)
[4] = target: HIV-1 MGRM-AE-004 Env (HIV-1)
[5] = target: HIV-1 MGRM-G-019 Env (HIV-1)
[6] = target: HIV-1 MGRM-D-014 Env (HIV-1)
[7] = target: HIV-1 94UG114 Env (HIV-1)
[8] = target: HIV-1 MGRM-C-009 Env on pseudovirus (HIV-1)
[9] = target: HIV-1 97ZA012 Env on pseudovirus (HIV-1)
[10] = target: HIV-1 IAVI-C22 Env (HIV-1)
[11] = target: HIV-1 MGRM-C-007 Env on pseudovirus (HIV-1)
[12] = target: HIV-1 LAVI_C3 Env on pseudovirus (HIV-1)
HIV-1 APV-17 Env (HIV-1) = target: HIV-1 APV-17 Env (HIV-1)
[13] = target: HIV-1 MGRM-F1-021 Env (HIV-1)
[14] = target: HIV-1 MGRM-AG-013 Env (HIV-1)
[15] = target: HIV-1 CAAN.A2 (Acute) Env on pseudovirus (HIV-1)
[16] = target: HIV-1 MGRM-D-018 Env (HIV-1)
[17] = target: HIV-1 92BR020 Env on pseudovirus (HIV-1)
[18] = target: HIV-1 MGRM-G-013 Env (HIV-1)
HIV-1 APV-6 Env (HIV-1) = target: HIV-1 APV-6 Env (HIV-1)
[19] = target: HIV-1 MGRM-C-010 Env on pseudovirus (HIV-1)
[20] = target: HIV-1 MGRM-C-025 Env on pseudovirus (HIV-1)
[21] = target: HIV-1 IAVI-C18 Env (HIV-1)
[22] = target: HIV-1 MGRM-F1-017 Env (HIV-1)
[23] = target: HIV-1 VLGCB3 Env on pseudovirus (HIV-1)
[24] = target: HIV-1 92TH021 Env (HIV-1)
[25] = target: HIV-1 93MW959 Env on pseudovirus (HIV-1)
[26] = target: HIV-1 94UG103 Env (HIV-1)
[27] = target: HIV-1 MGRM-C-017 Env on pseudovirus (HIV-1)
HIV-1 NL43 Env (HIV-1) = target: HIV-1 NL43 Env (HIV-1)
[28] = target: HIV-1 MGRM-C-013 Env on pseudovirus (HIV-1)
[29] = target: HIV-1 TRJ0.58 (Acute) Env on pseudovirus (HIV-1)
[30] = target: HIV-1 MGRM-C-004 Env on pseudovirus (HIV-1)
[31] = target: HIV-1 APV_6 Env on pseudovirus (HIV-1)
[32] = target: HIV-1 MGRM-C-006 Env on pseudovirus (HIV-1)
[33] = target: HIV-1 SC422661.8 (Acute) Env on pseudovirus (HIV-1)
[34] = target: HIV-1 MGRM-F1-014 Env (HIV-1)
[35] = target: HIV-1 MGRM-AG-012 Env (HIV-1)
[36] = target: HIV-1 MGRM-F1-006 Env (HIV-1)
[37] = target: HIV-1 MGRM-AG-003 Env (HIV-1)
[38] = target: HIV-1 MGRM-AG-001 Env (HIV-1)
[39] = target: HIV-1 MGRM-D-029 Env (HIV-1)
[40] = target: HIV-1 MGRM-C-015 Env on pseudovirus (HIV-1)
[41] = target: HIV-1 JRFL Env on pseudovirus (HIV-1)
[42] = target: HIV-1 MGRM-D-008 Env (HIV-1)
[43] = target: HIV-1 MGRM-D-002 Env (HIV-1)
[44] = target: HIV-1 MGRM-AG-011 Env (HIV-1)
[45] = target: HIV-1 MGRM-D-022 Env (HIV-1)
[46] = target: HIV-1 MGRM-F1-023 Env (HIV-1)
[47] = target: HIV-1 MGRM-D-020 Env (HIV-1)
[48] = target: HIV-1 MGRM-F1-012 Env (HIV-1)
[49] = target: HIV-1 MGRM-F1-010 Env (HIV-1)

b12 (antibody)
IC50 (µg/ml), pseudovirus neutralization [1]: > 50 µg/mL
IC50 (µg/ml), pseudovirus neutralization [2]: 0.07 µg/mL
IC50 (µg/ml), pseudovirus neutralization [3]: 45.6 µg/mL
neutralization IC50 [3]: 49.1 µg/mL
neutralization IC90 [3]: > 50 µg/mL
IC50 (µg/ml), pseudovirus neutralization [4]: > 50 µg/mL
IC50 (µg/ml), pseudovirus neutralization [5]: 3.77 µg/mL
IC50 (µg/ml), pseudovirus neutralization [6]: > 50 µg/mL
IC50 (µg/ml), pseudovirus neutralization [7]: > 50 µg/mL
IC50 [8]: > 50 µg/mL
IC50 [9]: > 50 µg/mL
neutralization IC50 [10]: 3.6 µg/mL
neutralization IC90 [10]: 29.6 µg/mL
IC50 [11]: > 50 µg/mL
IC50 [12]: 0.94 µg/mL
neutralization IC50 (HIV-1 APV-17 Env (HIV-1)): > 25 µg/mL
neutralization IC90 (HIV-1 APV-17 Env (HIV-1)): > 50 µg/mL
IC50 (pseudovirus neutralization) [13]: > 50 µg/mL
IC50 (µg/ml), pseudovirus neutralization [14]: > 50 µg/mL
IC50 [15]: > 50 µg/mL
IC50 (µg/ml), pseudovirus neutralization [16]: 1.39 µg/mL
IC50 [17]: > 50 µg/mL
IC50 (µg/ml), pseudovirus neutralization [18]: > 50 µg/mL
neutralization IC50 (HIV-1 APV-6 Env (HIV-1)): > 25 µg/mL
neutralization IC90 (HIV-1 APV-6 Env (HIV-1)): > 50 µg/mL
IC50 [19]: > 50 µg/mL
IC50 [20]: > 50 µg/mL
neutralization IC50 [21]: > 50 µg/mL
neutralization IC90 [21]: > 50 µg/mL
IC50 (pseudovirus neutralization) [22]: > 50 µg/mL
IC50 [23]: 0.15 µg/mL
neutralization IC50 [24]: 9.99 µg/mL
neutralization IC90 [24]: > 50 µg/mL
IC50 [25]: > 50 µg/mL
neutralization IC50 [26]: 3.54 µg/mL
neutralization IC90 [26]: 47.3 µg/mL
IC50 [27]: > 50 µg/mL
neutralization IC50 (HIV-1 NL43 Env (HIV-1)): 0.06 µg/mL
neutralization IC90 (HIV-1 NL43 Env (HIV-1)): 0.28 µg/mL
IC50 [28]: > 50 µg/mL
IC50 [29]: > 50 µg/mL
IC50 [30]: 5.46 µg/mL
IC50 [31]: > 50 µg/mL
IC50 [32]: > 50 µg/mL
IC50 [33]: 6.11 µg/mL
IC50 (pseudovirus neutralization) [34]: > 50 µg/mL
IC50 (µg/ml), pseudovirus neutralization [35]: 10.4 µg/mL
IC50 (pseudovirus neutralization) [36]: > 50 µg/mL
IC50 (µg/ml), pseudovirus neutralization [37]: > 50 µg/mL
IC50 (µg/ml), pseudovirus neutralization [38]: 11.9 µg/mL
IC50 (µg/ml), pseudovirus neutralization [39]: > 50 µg/mL
IC50 [40]: 13.3 µg/mL
IC50 [41]: 0.02 µg/mL
IC50 (µg/ml), pseudovirus neutralization [42]: > 50 µg/mL
IC50 (µg/ml), pseudovirus neutralization [43]: > 50 µg/mL
IC50 (µg/ml), pseudovirus neutralization [44]: > 50 µg/mL
IC50 (µg/ml), pseudovirus neutralization [45]: 17.6 µg/mL
IC50 (pseudovirus neutralization) [46]: > 50 µg/mL
IC50 (µg/ml), pseudovirus neutralization [47]: > 50 µg/mL
IC50 (pseudovirus neutralization) [48]: > 50 µg/mL
IC50 (pseudovirus neutralization) [49]: > 50 µg/mL
